Results on 1 molecule are retold here after patent publication US9271946B2, “Use of a RAR antagonist or inverse agonist for the treatment of chemotherapy and/or radiation therapy side effects” (IO Therapeutics, Inc., priority 2006, dated 2016).

Test [1] concerns CPM-induced neutropenic male BDF1 mice. Nature of the test: mono-therapy and combination therapy on neutrophil recovery in CPM-induced neutropenic mice (Example 4). The test is classed as in vivo, mouse. To be noted: monotherapy; CPM 150 mg/kg Day 0; VTP 194310 1 or 3 mg/kg/day oral Days −1 to 1; PEG-G-CSF 1 or 10 μg/kg s.c. Day 2. The procedure:
VTP 194310 DMSO stock solution was made by weighing out VTP 194310 and dissolved in DMSO (25 mg/1.33 ml DMSO). This stock solution was then mixed with Vehicle (39.2 ml Corn Oil+0.8 ml DMSO).
The 3.0 mg/kg VTP194310 solution was made by mixing 39.2 ml Corn Oil+0.8 ml VTP 194310 DMSO Stock.
The 1.0 mg/kg VTP194310 solution was made by diluting the VTP194310 DMSO Stock 1:3 with DMSO (e.g. 1 ml DMSO+0.5 ml 4310 Stock), and then combining 39.2 ml Corn Oil+0.8 ml of the diluted VTP194310 Stock.
The 1 and 10 μg/kg PEG-G-CSF solutions were made by diluting 6 mg/ml stock with PBS.
Male BDF1 mice (C57Bl×DBA2), 7-8 weeks old, DOB: 1 Jun. 2006) were used in this experiment.
35 μl of blood (via the submandibular vein) were collected according to the scheduled time points or until the full recovery of blood cells and platelets. The blood samples were analyzed after 1:5 dilution with PBS saline containing 2% BSA (Fraction V) and 0.2 mM EDTA on the Hematology Analyzer Cell-DYN 3700 (Abbott Diagnostics).
Each group of mice were treated with vehicle, VTP 194310 at 3 mg/kg, PEG-G-CSF at 1 or 10 μg/kg, and CPM at 150 mg/kg. The mean numbers of total white blood cells (WBC), neutrophils, lymphocytes, red blood cells (RBC) and platelets and standard error (SE) for data obtained for each treated group are shown in FIG. 4. […] Combination treatment with VTP 194310 and PEG-G-CSF further increased recovery.

Test [2] relates to CPM-induced leukopenic male BDF1 mice. Nature of the test: cyclophosphamide-induced mouse model of leukopenia, blood cell recovery (Example 1). The class given is in vivo. To be noted: 10 μg/kg s.c. at day 2. An excerpt: Mice purchased from Charles River Laboratories (Wilmington, Mass.) were housed individually in micro-isolater cages in a 12-hour light/dark cycle. They were housed under pathogen-free conditions, and received a normal standard diet and water ad libitum. They were acclimated for one week at the Association for Assessment and Accreditation of Laboratory Animal Care (AAALAC) accredited animal facility (Allergan Inc., Irvine, Calif.) prior to experiments. Study designs were approved by the Institutional Animal Care and Use Committee. Body weights were monitored throughout each study. Weight of the mice was in the range of 22-27 g at the day of treatment initiation. The mice were healthy, not previously used in other experimental procedures.
Leukopenia was induced in male BDF1 mice (C57Bl×DBA2, 7.5-12 weeks) by an intra-peritoneal (i.p.) injection of 200 mg/kg Cyclophosphamide (CPM, Sigma-Aldrich, Saint Louis, Mo.) in 0.2 ml saline. The effect of VTP 194310 on leukocyte recovery was evaluated by oral gavage of animals with 1 mg/kg of VTP 194310 as indicated in the results section. VTP 194310 (dissolved in DMSO) was diluted through peanut oil as the vehicle (dosed at 5 ml/kg). Control mice were given DMSO and vehicle alone. As a positive control, granulocytopoiesis was stimulated in CPM-treated mice by a single sub-cutaneous injection of 10 μg/kg pegylated recombinant methionyl human granulocyte colony-stimulating factor (PEG-r-metHuG-CSF) (Neulasta, Pegfilgrastim; Amgen, Thousand Oaks, Calif.) on day 2. Three separate experiments were performed.
Peripheral blood (60 μl) was collected under anaesthesia from the retroorbital sinus of the mice with heparinized capillary tubes and transferred to EDTA-coated microtainer tubes (Becton Dickinson, Franklin Lakes, N.J.). White cell, neutrophil, and lymphocyte counts were obtained for at least three mice per group by diluting the blood 1:4 with PBS containing 5% bovine serum albumin (Fraction V; Sigma, Saint Louis, Mo.), and by using an Advia 120 Hematology System (Bayer HealthCare Diagnostics Division, Tarrytown, N.Y.).

The subject of test [3] is 5-FU-induced neutropenic male BDF1 mice. Nature of the test: monotherapy and combination therapy on neutrophil recovery in 5-FU-induced neutropenic mice (Example 5). The test is classed as in vivo, mouse. To be noted: monotherapy; 5-FU 150 mg/kg i.v. Day 0; VTP 194310 3 mg/kg/day oral Days 2 to 4; PEG-G-CSF 10 μg/kg s.c. Day 5, 6, or 7. As to the method: VTP194310 DMSO Stock solution was made by weighing out VTP194310 and dissolving it in DMSO (25 mg/1.33 ml DMSO).
The Vehicle solution was made by mixing 39.2 ml Corn Oil+0.8 ml DMSO.
The 3.0 mg/kg VTP194310 solution was made by mixing 39.2 ml Corn Oil+0.8 ml VTP 194310 DMSO Stock solution.
The 150 mg/kg 5-FU solution was made by weighing out 187.5 mg 5-FU and mixing it with 10 g saline.
The 10 μg/kg PEG-G-CSF solution was made by diluting 6 mg/ml stock with PBS.
Male BDF1 mice (C57Bl×DBA2), 9 weeks old, DOB: 26 Jun. 2006) were used in this experiment.
Each group of mice were treated with 150 mg/kg 5-FU intravenously on Day 0, vehicle or VTP194310 orally by gavage at 3 mg/kg/day on Days 2 to 4, and/or subcutaneously with PEG-G-CSF at 10 μg/kg on Days 5, 6, or 7 according to the regimens listed in the table. The mean numbers of total white blood cells (WBC), neutrophils, lymphocytes, red blood cells (RBC) and platelets and standard error (SE) of data obtained for each treated group are shown in FIG. 6.

B1: PEG-G-CSF: pegylated recombinant methionyl human granulocyte colony-stimulating factor (Neulasta, Pegfilgrastim; Amgen) (protein, chains of the INN, looked up)
chain: TPLGPASSLPQSFLLKCLEQVRKIQGDGAALQEKLCATYKLCHPEELVLLGHSLGIPWAPLSSCPSQALQLAGCLSQLHSGLFLYQGLLQALEGISPELGPTLDTLQLDVADFATTIWQQMEELGMAPALQPTQGAMPAFASAFQRRAGGVLVASHLQSFLEVSYRVLRHLAQP
modifications: N-terminal Met; PEG
Take B1: the “neutrophil recovery relative to control” value in test [1] was “enhanced neutrophil recovery”. For the same molecule, in test [2], the “blood neutrophil level at day 8” value was “declined by day 8 to numbers that were observed in the control group”, the “day of peak blood neutrophil level” value amounted to 7 days and the “number of blood neutrophils” value was “sharp rise”. The “recovery of neutrophils relative to control” value in test [3] was “little effect”.
